PMC3744951 (Molecular Biology of the Cell, 2013)

Molecular target: GST-GSK3β fusion protein (human, UniProt P49841 1-420)
Assay: co-IP

GST-GSK3β fusion protein, sequence (P49841 whole entry, the tested form may be a part): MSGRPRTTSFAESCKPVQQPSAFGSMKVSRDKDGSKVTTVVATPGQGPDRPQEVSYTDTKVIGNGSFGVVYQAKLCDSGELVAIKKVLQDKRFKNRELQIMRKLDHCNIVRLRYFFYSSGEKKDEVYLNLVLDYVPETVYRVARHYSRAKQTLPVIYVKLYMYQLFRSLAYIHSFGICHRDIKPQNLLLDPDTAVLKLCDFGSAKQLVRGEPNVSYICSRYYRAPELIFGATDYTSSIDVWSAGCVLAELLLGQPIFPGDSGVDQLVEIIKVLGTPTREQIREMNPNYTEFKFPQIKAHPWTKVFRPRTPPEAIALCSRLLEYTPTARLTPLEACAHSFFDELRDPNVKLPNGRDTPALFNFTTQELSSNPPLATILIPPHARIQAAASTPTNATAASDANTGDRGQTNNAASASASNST

B1: GST-FANCL fusion protein (natural protein, human, UniProt Q9NW38 1-375, looked up)
chain: MAVTEASLLRQCPLLLPQNRSKTVYEGFISAQGRDFHLRIVLPEDLQLKNARLLCSWQLRTILSGYHRIVQQRMQHSPDLMSFMMELKMLLEVALKNRQELYALPPPPQFYSSLIEEIGTLGWDKLVYADTCFSTIKLKAEDASGREHLITLKLKAKYPAESPDYFVDFPVPFCASWTPQSSLISIYSQFLAAIESLKAFWDVMDEIDEKTWVLEPEKPPRSATARRIALGNNVSINIEVDPRHPTMLPECFFLGADHVVKPLGIKLSRNIHLWDPENSVLQNLKDVLEIDFPARAILEKSDFTMDCGICYAYQLDGTIPDQVCDNSQCGQPFHQICLYEWLRGLLTSRQSFNIIFGECPYCSKPITLKMSGRKH
B1: binds.
